Results from the supplement of paper PMC10126150.
± gives the standard deviation of the averaged measurements.

System: ATP
Assay: switch fluorescence ratio, 500 uM ATP over buffer (Cy3 cluster intensity, sum of 5 cycles each) (fold (ratio)); higher = stronger signal-on switching upon ATP binding; sequences stand for … in TCGTCGGCAGCGTCAGATGTGTATAAGAGACAGTTTTTTTTTTTTTTTTTTTTTTTTT…TC
Settings: aptamer strand: ATP DNA aptamer (quencher-CACCTGGGGGAGTATTGCGGAGGAAGG + anchor), 100 nM annealed; ATP concentration: 500 uM
In short: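 After annealing to 100 nM quencher-labelled ATP aptamer, Cy3-labelled switching-strand clusters on a modified Illumina MiSeq flow-cell were imaged in selection buffer. A second image followed after 15 min with 500 uM ATP at 22 °C, and five such buffer/ATP cycles were done, each separated by NaOH stripping and re-annealing. The fluorescence ratio, averaged per switch-domain sequence, is summed target-cycle over summed buffer-cycle Cy3 intensity per cluster, with clusters outside 100-1000 RFU excluded.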
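Note: ATP exposure 15 min at 22 °C before imaging.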

Sequence | switch fluorescence ratio
TATAGGGATT | 0.984 ± 0.015
GGGAATGGTG | 1.035 ± 0.0095
ATATTAGGGA | 1 ± 0.0079
TACCGCGGGG | 1.04 ± 0.043
AGGTAGGCGG | 0.969 ± 0.055
TTCAATGGAA | 1.03 ± 0.011
CAGGGCCATG | 1.009 ± 0.0014
GCAATTGGGA | 1.05 ± 0.017
TGCCACGCTC | 1.06 ± 0.029
TCCTTTTTTT | 1.01 ± 0.033
TCATAAGGCG | 0.986 ± 0.046
GCACGCGAAG | 1.04 ± 0.024
ACTCAGTGTC | 1.05 ± 0.023
GGATAGGTTT | 1.01 ± 0.034
GGGAGGGGG | 0.965 ± 0.045
GCTAGCGTTC | 1 ± 0.013
GCAGATCGAT | 1.03 ± 0.015
GAGAGTATTT | 0.995 ± 0.073
ATGGGAAGAC | 1.06 ± 0.017
TCTTTGTTTT | 0.991 ± 0.021
TATAGTATGT | 1.01 ± 0.015
ATTGATGAGG | 0.972 ± 0.012
CTGTATTCGC | 1.172 ± 0.0037

Sequence | switch fluorescence ratio
GAAAGAAGGG | 1.21 ± 0.35
TGGGAGGGTA | 0.982 ± 0.022
CCTGGGGGGG | 1.03 ± 0.05
GACTTGGGAT | 1.034 ± 0.0019
TGGTGTTTT | 0.998 ± 0.024
AACGGGACGT | 0.961 ± 0.06
TTGCATTTTG | 0.985 ± 0.025
AGCTTTAAAA | 0.981 ± 0.025
TAGGCATTGG | 0.995 ± 0.014
GATATTTAGG | 1.02 ± 0.038
GAGGTGTAGG | 1.01 ± 0.02
TCGGGGCTCT | 1.07 ± 0.12
TCGATAGACG | 1.02 ± 0.018
TCTGAAATTC | 1.15 ± 0.055
GCAGTAAAAC | 1.694 ± 0.013
TCCCGGTTTT | 1.1 ± 0.11
AACCGTATGG | 1 ± 0.022
TTTTGATATT | 1.01 ± 0.035
TGGTGTATGG | 1.01 ± 0.035
CAATACTAAC | 1.32 ± 0.037
TAACGGCCTC | 1.04 ± 0.023
GCCTTGGGGG | 1 ± 0.028
CGCTATAAGG | 1.03 ± 0.017

Sequence | switch fluorescence ratio
TGAAGCCTAC | 2.57 ± 0.28
TTATTAGCAA | 1.93 ± 1.4
TTGTGGCGCC | 0.958 ± 0.021
TTACGCTCAT | 2.79 ± 0.61
TGGTTGAGGC | 1.01 ± 0.021
TTGGTTACTG | 1.03 ± 0.07
CGGGTTGGGC | 1.07 ± 0.027
CTATACTTGA | 0.999 ± 0.031
GTGTCCTTAT | 0.998 ± 0.074
TACAGGGACC | 1.022 ± 0.0034
ACTGCGTGAT | 1.05 ± 0.022
GGGTAAGGTG | 1.3 ± 0.091
AGAAATTTTT | 0.998 ± 0.016
AGCTTGGGTT | 0.98 ± 0.018
GGTACAGGAC | 1.06 ± 0.047
AAGCTAAATG | 1.01 ± 0.05
ATCGACATAT | 1.043 ± 0.0031
GTGATTGCTA | 0.9878 ± 0.0061
TTGTCCAAAT | 0.986 ± 0.0099
AGCCTACGGG | 1.0466 ± 0.00084
GTGTCAAGTA | 0.961 ± 0.016
TGGCGGCATG | 1.01 ± 0.06
GGGATCAGTA | 0.9602 ± 0.0055

Sequence | switch fluorescence ratio
GGGAATCTGC | 1.01 ± 0.026
CGGGCCCTGA | 0.977 ± 0.013
GATATATTGC | 1.03 ± 0.012
TTCGGGTATT | 1.1 ± 0.2
TCGAGGAATT | 1.02 ± 0.02
ATCGTGGGAT | 1.01 ± 0.0081
GCGGAAGGGT | 1 ± 0.04
CTTTGGTTGA | 0.995 ± 0.031
TTTCTCCGTT | 1.44 ± 0.55
GCTTAATCAG | 0.988 ± 0.022
CGGACGGAAG | 1.01 ± 0.0078
CGTTGCTTTT | 1.01 ± 0.026
TACTGGGGGA | 1.07 ± 0.03
CAATGTTTGC | 1.002 ± 0.0083
CAAGGGTAGG | 1.04 ± 0.021
AGTTGGGGAT | 0.986 ± 0.04
GGGGGTGTCA | 0.968 ± 0.0099
TCAAAATATA | 0.987 ± 0.061
GCTTGAGTAC | 0.992 ± 0.037
TCCATGGGAC | 1.03 ± 0.041
GGGGTTAGGA | 0.979 ± 0.019
CGTAGAGAGG | 0.998 ± 0.0029
ACGGGTATTA | 0.9907 ± 0.0014

Sequence | switch fluorescence ratio
GATTGGTGTG | 0.997 ± 0.024
AAAGTGTTGT | 0.979 ± 0.039
TTTTTGGCCT | 1.05 ± 0.052
ATAGACGTCC | 0.993 ± 0.015
CAGCGGGGGC | 1.01 ± 0.016
TTGGGGTAGG | 1.01 ± 0.032
CGGGGTCGTA | 1 ± 0.047
GAGATTGGGA | 1.04 ± 0.045
ACAAGTGTGC | 1.04 ± 0.018
TAGCCCGGTG | 1.47 ± 0.53
CCAGGGGGGC | 1.16 ± 0.061
AATTGAACGG | 0.9995 ± 0.0042
TGGACGAAGT | 1.01 ± 0.023
GAGGTAGTCT | 1.07 ± 0.14
GCTGGTTTAG | 1.006 ± 0.0039
GGGTTATGGT | 0.998 ± 0.028
CTACTACTGA | 1.08 ± 0.015
TTTTGGCCAA | 1.01 ± 0.041
ACATGAGAAA | 0.988 ± 0.052
GGGGTTTGCT | 0.973 ± 0.033
GGGGGGAAGT | 1.01 ± 0.022
TGAAGGCTTT | 1.01 ± 0.052
CAAGAGGGAG | 0.994 ± 0.018

Sequence | switch fluorescence ratio
ATATCGGGGT | 1.001 ± 0.0045
AGTTTGGGT | 0.985 ± 0.032
TTAAAGCGGG | 1.01 ± 0.012
CCTTGGGGAA | 0.98 ± 0.013
CTTGGGTAAG | 0.988 ± 0.033
CCGTGGCGTG | 1.01 ± 0.033
AATAGCCTTG | 1.02 ± 0.013
GCGGAACGGT | 1.03 ± 0.034
TGAGCAGAGG | 1.04 ± 0.015
AGAGTCAGGC | 1.07 ± 0.044
GGGGGCACAG | 0.992 ± 0.012
AATTTTTAGT | 0.981 ± 0.024
GTAAGAGGGG | 1.02 ± 0.03
CCTCGTTTTT | 1.11 ± 0.053
TACACAGCGG | 1.05 ± 0.045
CTTAAAGTGC | 1.05 ± 0.069
TTCATCGTAT | 1.01 ± 0.015
TTTATTATTG | 0.989 ± 0.035
TTTTCTTGCC | 1.09 ± 0.11
TTGGTCGGTC | 0.985 ± 0.036
GGGCCGTAGG | 0.99 ± 0.037
TAACTAGCGA | 1.027 ± 0.0041
TTTGCAATGT | 1.29 ± 0.1

Sequence | switch fluorescence ratio
AGGAGTATGG | 1.02 ± 0.015
GGCTTTGTGG | 0.992 ± 0.02
CTTTCAAAAA | 1.03 ± 0.015
CGAATCGGTG | 1.01 ± 0.019
AGTTAGTGAC | 1.02 ± 0.024
ATTGCGGCTA | 1.03 ± 0.033
CGATTCAAGG | 1.03 ± 0.017
CGTATGAAAA | 1 ± 0.014
GCCGATGCCT | 1.02 ± 0.015
TGGTTCTGTT | 0.975 ± 0.018
ATGTTGCGGG | 1 ± 0.041
GGGATAGGAA | 0.993 ± 0.03
GGGCGGGCAG | 0.997 ± 0.026
GGTGACCTTG | 0.9891 ± 0.0037
AAAGCCGGTT | 0.9689 ± 0.004
TTAAAGTCAT | 1.007 ± 0.0072
GTTCACTGGG | 0.994 ± 0.022
TGGGTCGGGG | 0.985 ± 0.016
GGAAGATGTG | 1.02 ± 0.016
